Laboratory results from US6569419B2, “Methods for promoting production of myelin by Schwann cells” (ZymoGenetics, Inc., priority 2000, dated 2003).

Key:
[1] = system: primary rat Schwann cells; assay: Induction of protein zero expression in Schwann cells (Western blot); assay type: cell-based; details: N2 medium + 1 μM progesterone
Experimental: Primary Schwann cells were prepared as described above using 1-day old CD rat neonates. Schwann cells were grown in DMEM, 10% fetal bovine serum (FBS), plus bovine pituitary extract (PEX) at 20 μg/ml and Forskolin at 2μM. The cells were weaned down to a low serum medium (“Li” medium with 1% FBS added to it). Li medium was comprised of DMEM/F12, 10 μg/ml tranferrin, 5 μg/ml insulin, 2 nM progesterone, 2 μM Forskolin, 20 μg/ml PEX, and 20 ng/ml Heregulin-beta-1 (R & D Systems).
The Schwann cells were grown to confluency in the low serum growth medium on poly-L-lysine-coated 10 cm tissue culture dishes. The cell medium was changed to N2 medium+1 μM progesterone with either Forskolin (Calbiochem) (10 μM and 25 μM) or 100 ng/ml of human Zcyto7. Control medium was Schwann cells in N2+1 μM progesterone for the whole time. Cells were harvested and placed in lysis buffer (125 mM Tris HCl, pH 7.0, 15% sucrose, 4% SDS, 10 mM EDTA, plus added Roche Complete-EDTA-free, protease inhibitor cocktail).
Protein concentrations of cell lysates were determined by Pierce BCA protein assay (Pierce Chemical Co., Rockford, Ill.). Forty micrograms of each cell lysate sample was run on a 4-12% Tris-Glycine gel (Novex) at 125 V for 1 hour 30 minutes, and transferred onto a PVDF membrane in a Hoeffer unit a 550 mAmps for 1 hour. Mouse monoclonal antibody to protein zero was used at 1:1000 dilution (1 μg/am final concentration) to probe the blot. A Vectastain biotin/streptavidin-HRP 2nd antibody system was used for amplication. The blot was developed with Pierce SuperSignal West Pico chemiluminescent substrate and scanned on a Boehringer-Mannheim Lumi-Imager.

[2] = system: mRNA that encodes myelin basic protein and protein zero; assay: Hybridization studies: mRNA levels that encode myelin basic protein and protein zero; assay type: cell-based
Experimental: The expression of myelin basic protein and protein zero was also determined by measuring the mRNA levels that encode myelin basic protein and protein zero.

Molecule: C=C[C@@]1(C)CC(=O)[C@]2(O)[C@@]3(C)[C@@H](O)CCC(C)(C)[C@@H]3[C@H](O)[C@H](OC(C)=O)[C@@]2(C)O1 [Forskolin]
- Relative percentage of P zero protein (media control = 100%) ([1]; 10 μM): 199%
- Relative percentage of P zero protein (media control = 100%) ([1]; 25 μM): 30%

B1: human Zcyto7: Human Zcyto7 polypeptide (SEQ ID NO: 2), identified by its homology to Interleukin-17; used at 100 ng/ml (protein)
chain: MDWPHNLLFLLTISIFLGLGQPRSPKSKRKGQGRPGPLAPGPHQVPLDLVSRMKPYARMEEYERNIEEMVAQLRNSSELAQRKCEVNLQLWMSNKRSLSPWGYSINHDPSRIPVDLPEARCLCLGCVNPFTMQEDRSMVSVPVFSQVPVRRRLCPPPPRTGPCRQRAVMETIAVGCTCIF
- Relative percentage of P zero protein (media control = 100%) ([1]; 100 ng/ml): 173%

B2: Zcyto7: Zcyto7 polypeptide; species and solution not stated in Example 6 (protein)
chain: MDWPHNLLFLLTISIFLGLGQPRSPKSKRKGQGRPGPLAPGPHQVPLDLVSRMKPYARMEEYERNIEEMVAQLRNSSELAQRKCEVNLQLWMSNKRSLSPWGYSINHDPSRIPVDLPEARCLCLGCVNPFTMQEDRSMVSVPVFSQVPVRRRLCPPPPRTGPCRQRAVMETIAVGCTCIF
- mRNA that encodes for myelin basic protein [2]: upregulated
- mRNA that encodes for protein zero [2]: upregulated
